Measurements: patent publication US20220135656A1

Assays:
[1] = biological target: barley proteins (barley prolamins) (barley); test: indirect ELISA on coated Barley, duplicate 1
[2] = biological target: PWG-gliadin (wheat); test: SPR, Biacore T200; Glutenin amine-coupled to the chip, antibody as analyte 20-320 nM; 1:1 binding fit; Chi2 1.1 RU2, U-value 5
[3] = biological target: oat proteins (oat); test: indirect ELISA on coated Oat, duplicate 1
[4] = biological target: rye proteins (rye prolamins) (rye); test: indirect ELISA on coated Rye, duplicate 1
[5] = biological target: rye proteins (rye prolamins) (rye); test: indirect ELISA on coated Rye, duplicate 2
[6] = biological target: wheat proteins (wheat prolamins) (wheat); test: indirect ELISA on coated Wheat, duplicate 1
[7] = biological target: wheat proteins (wheat prolamins) (wheat); test: indirect ELISA on coated Wheat, duplicate 2
[8] = biological target: oat proteins (oat); test: indirect ELISA on coated Oat, duplicate 2
[9] = biological target: barley proteins (barley prolamins) (barley); test: indirect ELISA on coated Barley, duplicate 2
[10] = biological target: 33-mer gluten specific peptide (wheat); test: indirect ELISA on coated 33-Mer, duplicate 1
33-mer gluten specific peptide (wheat), sequence (peptide, as listed by the source): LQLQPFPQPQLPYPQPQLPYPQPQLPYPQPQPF

[11] = biological target: 33-mer gluten specific peptide (wheat); test: indirect ELISA on coated 33-Mer, duplicate 2

ELISA absorbance at 0 ng/ml antibody (blank) [1]: 0.041
ELISA absorbance at 0.8 ng/ml antibody [1]: 0.165
ELISA absorbance at 4 ng/ml antibody [1]: 0.63
ELISA absorbance at 20 ng/ml antibody [1]: 1.62
Kd [2]: 203 nM
koff [2]: 0.0539 s⁻¹
kon [2]: 266000 M⁻¹ s⁻¹
ELISA absorbance at 0 ng/ml antibody (blank) [3]: 0.043
ELISA absorbance at 0.8 ng/ml antibody [3]: 0.041
ELISA absorbance at 4 ng/ml antibody [3]: 0.042
ELISA absorbance at 20 ng/ml antibody [3]: 0.043
ELISA absorbance at 0 ng/ml antibody (blank) [4]: 0.039
ELISA absorbance at 0.8 ng/ml antibody [4]: 0.165
ELISA absorbance at 4 ng/ml antibody [4]: 0.651
ELISA absorbance at 20 ng/ml antibody [4]: 1.56
ELISA absorbance at 0 ng/ml antibody (blank) [5]: 0.042
ELISA absorbance at 0.8 ng/ml antibody [5]: 0.174
ELISA absorbance at 4 ng/ml antibody [5]: 0.671
ELISA absorbance at 20 ng/ml antibody [5]: 1.61
ELISA absorbance at 0 ng/ml antibody (blank) [6]: 0.039
ELISA absorbance at 0.8 ng/ml antibody [6]: 0.133
ELISA absorbance at 4 ng/ml antibody [6]: 0.534
ELISA absorbance at 20 ng/ml antibody [6]: 1.5
ELISA absorbance at 0 ng/ml antibody (blank) [7]: 0.043
ELISA absorbance at 0.8 ng/ml antibody [7]: 0.133
ELISA absorbance at 4 ng/ml antibody [7]: 0.534
ELISA absorbance at 20 ng/ml antibody [7]: 1.52
ELISA absorbance at 0 ng/ml antibody (blank) [8]: 0.044
ELISA absorbance at 0.8 ng/ml antibody [8]: 0.055
ELISA absorbance at 4 ng/ml antibody [8]: 0.043
ELISA absorbance at 20 ng/ml antibody [8]: 0.048
ELISA absorbance at 0 ng/ml antibody (blank) [9]: 0.042
ELISA absorbance at 0.8 ng/ml antibody [9]: 0.171
ELISA absorbance at 4 ng/ml antibody [9]: 0.659
ELISA absorbance at 20 ng/ml antibody [9]: 1.61
ELISA absorbance at 0 ng/ml antibody (blank) [10]: 0.04
ELISA absorbance at 0.8 ng/ml antibody [10]: 0.039
ELISA absorbance at 4 ng/ml antibody [10]: 0.048
ELISA absorbance at 20 ng/ml antibody [10]: 0.067
ELISA absorbance at 0 ng/ml antibody (blank) [11]: 0.04
ELISA absorbance at 0.8 ng/ml antibody [11]: 0.04
ELISA absorbance at 4 ng/ml antibody [11]: 0.052
ELISA absorbance at 20 ng/ml antibody [11]: 0.118
Substance: R5 monoclonal antibody
